These results are taken from publication doi:10.1101/2025.06.02.657420, “Structure of the energy converting methyltransferase (Mtr) of Methanosarcina mazei in complex with an oxygen-stress responsive small protein” (bioRxiv, 2025).

Data set [1] concerns the molecule itself. Description: cryo-EM structure; single-particle cryo-EM of the native Mtr complex purified from methanol-grown M. mazei through MtrE-TwinStrep (Strep-Tactin), LMNG-solubilised, 6 mg/mL with 1 mM CHAPSO; buffer 50 mM MOPS/NaOH pH 7.0, 10 mM MgCl2, 150 mM NaCl; C1 consensus map with local refinements of MtrA and MtrH.
For data set [2], the target named is T1, MtrE carrying a C-terminal TwinStrep-tag (Methanosarcina mazei, UniProt P80651 1-304).
T1 construct: MtrE of the Mtr complex, Methanosarcina mazei DSM 3647, locus MM_1547; the mtrE gene was amplified from chromosomal DNA with primers from the start codon to the last codon before the tag; The plasmid was put into wild-type M. mazei, so untagged chromosomal MtrE may stand in the trimeric complex beside the tagged copy; also called MtrE-TS; TS-tagged MtrE; source: M. mazei DSM 3647, from shuttle …
T1 sequence (looked up): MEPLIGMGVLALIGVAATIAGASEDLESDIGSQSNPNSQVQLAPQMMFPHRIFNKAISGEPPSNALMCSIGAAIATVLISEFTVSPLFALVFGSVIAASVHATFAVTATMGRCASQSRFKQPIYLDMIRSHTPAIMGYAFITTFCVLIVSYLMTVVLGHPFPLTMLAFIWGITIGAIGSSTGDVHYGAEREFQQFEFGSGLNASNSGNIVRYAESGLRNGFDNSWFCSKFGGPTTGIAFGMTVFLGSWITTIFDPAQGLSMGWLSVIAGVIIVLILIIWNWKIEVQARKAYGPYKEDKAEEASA
The data set is described as above. The note with it: both partners purified.

B1: MtrG, subunit G of the Mtr complex (natural protein, UniProt P80656 1-72, looked up)
chain: MDGKAPAAFVEPGEFNEVMKRLDQIDEKVEFVNSEVAQRIGKKVGRDIGILYGGVIGLLLFLIYVQISSMFM
notes: MtrG of the Mtr complex, Methanosarcina mazei DSM 3647 (Goe1); single-spanning stalk subunit; Three copies stand in the whole complex and form a three-helix bundle in the membrane plane; also called chain G; source: endogenous, M. mazei membranes, LMNG-solubilised, co-purified with MtrE-TwinStrep on Strep-Tactin
On to B1, for which the binding result in data set [1] was “binds”.

B2: MtrF, subunit F of the Mtr complex (natural protein, UniProt P80654 1-72, looked up)
chain: MAEEHEKGVPMVLAPQMGAIDATVESIRYRAQLIARNQKLDSGVAATGIIGFAAGFLFSLLMVIVLPVAVGL
notes: MtrF of the Mtr complex, Methanosarcina mazei DSM 3647 (Goe1); single-spanning stalk subunit; Three copies stand in the whole complex; also called chain F; helix F; source: endogenous, M. mazei membranes, LMNG-solubilised, co-purified with MtrE-TwinStrep on Strep-Tactin
As to B2, in data set [2], the binding result was “binds”.

B3: MtrB, subunit B of the Mtr complex (natural protein, UniProt P80655 1-108, looked up)
chain: MSIVRIAPEINLVMDTESGTVTQERKDSIQYSMEPVFERVDKLDAIADDLVNSLSPSKPLLNTWPGRENTSYIAGIYSNSFYGIIVGLAFSGLLALIIYITRLMGGVV
notes: MtrB of the Mtr complex, Methanosarcina mazei DSM 3647 (Goe1); single-spanning stalk subunit; Three copies stand in the whole complex; also called chain B; helix B; source: endogenous, M. mazei membranes, LMNG-solubilised, co-purified with MtrE-TwinStrep on Strep-Tactin
B3: the binding result in data set [2] was “binds”.
